In experiment [1] the target is full-length human CXCR4 with a C-terminal Flag-tag (human) (UniProt P61073). In words: cryo-EM structure.
In experiment [2] the target is T1, full-length human CXCR4 with a C-terminal Flag-tag (human), P61073.
T1 chain: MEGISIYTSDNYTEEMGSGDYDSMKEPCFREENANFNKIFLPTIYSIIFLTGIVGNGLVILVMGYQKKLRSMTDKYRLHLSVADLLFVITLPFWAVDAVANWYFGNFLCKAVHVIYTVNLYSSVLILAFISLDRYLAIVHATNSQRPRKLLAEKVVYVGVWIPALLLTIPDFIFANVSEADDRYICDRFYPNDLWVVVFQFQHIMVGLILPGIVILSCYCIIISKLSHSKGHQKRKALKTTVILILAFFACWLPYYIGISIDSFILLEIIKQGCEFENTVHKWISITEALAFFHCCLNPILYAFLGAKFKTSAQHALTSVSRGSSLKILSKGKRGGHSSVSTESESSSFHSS
The experiment is described as follows: cryo-EM structure. The conditions noted are these: remark: other sources report otherwise.

Experiment [3] concerns the target T1, full-length human CXCR4 with a …. In words: native gel or EMSA. The conditions noted are these: remark: other sources report otherwise. On the technique in general: In EMSA bound probe runs differently from free probe, usually more slowly.

As to “gp120^HIV-2-CD4 complex (from UniProt P01730 26-388)”, the stoichiometry N (gp120 per CXCR4 tetramer) in experiment [1] was 2.

B1: full-length human CXCR4 with a C-terminal Flag-tag, P61073 1-352 (receptor)
chain: MEGISIYTSDNYTEEMGSGDYDSMKEPCFREENANFNKIFLPTIYSIIFLTGIVGNGLVILVMGYQKKLRSMTDKYRLHLSVADLLFVITLPFWAVDAVANWYFGNFLCKAVHVIYTVNLYSSVLILAFISLDRYLAIVHATNSQRPRKLLAEKVVYVGVWIPALLLTIPDFIFANVSEADDRYICDRFYPNDLWVVVFQFQHIMVGLILPGIVILSCYCIIISKLSHSKGHQKRKALKTTVILILAFFACWLPYYIGISIDSFILLEIIKQGCEFENTVHKWISITEALAFFHCCLNPILYAFLGAKFKTSAQHALTSVSRGSSLKILSKGKRGGHSSVSTESESSSFHSS
With B1, the stoichiometry N (protomers in the oligomer) in experiment [2] was determined as 4. Also, the stoichiometry N (protomers in the oligomer (main peak)) in experiment [3] is 4.

For the origin of these results see article PMC12485088.
